B1: glmS ribozyme (parent)
chain: AUAAAAGCGCCAGAACUACAGAAAUGUAGUUGACGAGGAGGAGGUUUAUCGAAUUUUCGGCGGAUGCCUCCAAA

± gives the standard error. Variants at the floor of the assay were thinned out.

Details in all cases: with glucosamine-6-phosphate
In data set [1] the parent is B1. The data set can be described thus: self-cleavage kobs at 40 uM GlcN6P; higher = faster cleavage; RNA array. The essentials:
(§1)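 Weighted Michaelis–Menten fits across concentrations supplied kcat and KM, based on kobs from one- or two-exponential decay fits to normalised per-tile medians. The data came from barcoded ribozyme variants transcribed in situ by E. coli RNA polymerase on sequenced MiSeq chips and tracked at 37 °C by a hybridised Cy3 probe. Glucosamine-6-phosphate (40 μM to 10 mM) in HEPES/KCl/Mg(OAc)2 buffer was flowed in.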

Variants of B1 are the subject of data set [2]. The data set can be described thus: self-cleavage kobs at 640 uM GlcN6P; higher = faster cleavage; RNA array. The gist of the method:
as §1

Data set [3] covers variants of B1. In words: self-cleavage kobs at 10000 uM GlcN6P; higher = faster cleavage; RNA array. The essentials: as §1
Data set [4] covers variants of B1. In words: self-cleavage kobs at 2500 uM GlcN6P; higher = faster cleavage; RNA array. The essentials: as §1
The variants in data set [5] derive from B1. The data set can be described thus: self-cleavage kobs at 160 uM GlcN6P; higher = faster cleavage; RNA array. The essentials:
as §1

In the case of A6U G29A G63U, the “self-cleavage kobs at 40 uM GlcN6P” value in the data set with glucosamine-6-phosphate [1] was less than 1e-05 s⁻¹.

As for U46G C68G C71G, the “self-cleavage kobs at 40 uM GlcN6P” value with glucosamine-6-phosphate [1] was 9.54e-05 ± 3.1e-05 s⁻¹.

On to U31G G38U C61U C71U, for which the “self-cleavage kobs at 40 uM GlcN6P” value with glucosamine-6-phosphate [1] is less than 1e-05 s⁻¹.

As for U30C G38U G43C U46G, the “self-cleavage kobs at 40 uM GlcN6P” value with glucosamine-6-phosphate [1] was less than 1e-05 s⁻¹. The “self-cleavage kobs at 640 uM GlcN6P” value with glucosamine-6-phosphate [2] was less than 1e-05 s⁻¹. In the data set with glucosamine-6-phosphate [3], the “self-cleavage kobs at 10000 uM GlcN6P” value is less than 1e-05 s⁻¹.

On to A6G A15C C70A, for which, in the data set with glucosamine-6-phosphate [1], the “self-cleavage kobs at 40 uM GlcN6P” value is less than 1e-05 s⁻¹.

On to G7C C11U G40U C71A, for which the “self-cleavage kobs at 40 uM GlcN6P” value in the data set with glucosamine-6-phosphate [1] is less than 1e-05 s⁻¹. Also, the “self-cleavage kobs at 640 uM GlcN6P” value with glucosamine-6-phosphate [2] is less than 1e-05 s⁻¹. In addition, the “self-cleavage kobs at 2500 uM GlcN6P” value with glucosamine-6-phosphate [4] was less than 1e-05 s⁻¹. Moreover, the “self-cleavage kobs at 10000 uM GlcN6P” value with glucosamine-6-phosphate [3] was less than 1e-05 s⁻¹.

As to A42G U56A G60U, the “self-cleavage kobs at 40 uM GlcN6P” value with glucosamine-6-phosphate [1] is less than 1e-05 s⁻¹. The “self-cleavage kobs at 2500 uM GlcN6P” value with glucosamine-6-phosphate [4] was less than 1e-05 s⁻¹. The “self-cleavage kobs at 10000 uM GlcN6P” value with glucosamine-6-phosphate [3] is less than 1e-05 s⁻¹.

Turning to A14G U31A A36U A64G, the “self-cleavage kobs at 40 uM GlcN6P” value with glucosamine-6-phosphate [1] was less than 1e-05 s⁻¹.

Regarding A36G A39U C68U, the “self-cleavage kobs at 40 uM GlcN6P” value with glucosamine-6-phosphate [1] was less than 1e-05 s⁻¹. Besides, the “self-cleavage kobs at 10000 uM GlcN6P” value with glucosamine-6-phosphate [3] was less than 1e-05 s⁻¹.

Turning to G43C U46G, in the data set with glucosamine-6-phosphate [1], the “self-cleavage kobs at 40 uM GlcN6P” value is less than 1e-05 s⁻¹. Further, the “self-cleavage kobs at 160 uM GlcN6P” value with glucosamine-6-phosphate [5] was less than 1e-05 s⁻¹. In the data set with glucosamine-6-phosphate [2], the “self-cleavage kobs at 640 uM GlcN6P” value was less than 1e-05 s⁻¹. Besides, the “self-cleavage kobs at 2500 uM GlcN6P” value with glucosamine-6-phosphate [4] was less than 1e-05 s⁻¹.

Regarding A15C A48G U69G, the “self-cleavage kobs at 40 uM GlcN6P” value in the data set with glucosamine-6-phosphate [1] was less than 1e-05 s⁻¹. In addition, the “self-cleavage kobs at 10000 uM GlcN6P” value with glucosamine-6-phosphate [3] was less than 1e-05 s⁻¹.

Consider G7A A14C G32U G40A, for which the “self-cleavage kobs at 40 uM GlcN6P” value with glucosamine-6-phosphate [1] is less than 1e-05 s⁻¹. In addition, the “self-cleavage kobs at 2500 uM GlcN6P” value in the data set with glucosamine-6-phosphate [4] is less than 1e-05 s⁻¹.

With A6U G35U A39G C71A, the “self-cleavage kobs at 40 uM GlcN6P” value with glucosamine-6-phosphate [1] is less than 1e-05 s⁻¹. The “self-cleavage kobs at 10000 uM GlcN6P” value with glucosamine-6-phosphate [3] was less than 1e-05 s⁻¹.

For A15C G44U C61G C67G, the “self-cleavage kobs at 40 uM GlcN6P” value in the data set with glucosamine-6-phosphate [1] is less than 1e-05 s⁻¹. Also, the “self-cleavage kobs at 640 uM GlcN6P” value in the data set with glucosamine-6-phosphate [2] was less than 1e-05 s⁻¹. Further, the “self-cleavage kobs at 2500 uM GlcN6P” value in the data set with glucosamine-6-phosphate [4] is less than 1e-05 s⁻¹. In addition, the “self-cleavage kobs at 10000 uM GlcN6P” value with glucosamine-6-phosphate [3] is less than 1e-05 s⁻¹.

On to G35A A39G U57C, for which, in the data set with glucosamine-6-phosphate [1], the “self-cleavage kobs at 40 uM GlcN6P” value was less than 1e-05 s⁻¹. Further, the “self-cleavage kobs at 2500 uM GlcN6P” value in the data set with glucosamine-6-phosphate [4] is less than 1e-05 s⁻¹. The “self-cleavage kobs at 10000 uM GlcN6P” value with glucosamine-6-phosphate [3] was less than 1e-05 s⁻¹.

G60A G66U: the “self-cleavage kobs at 40 uM GlcN6P” value with glucosamine-6-phosphate [1] is less than 1e-05 s⁻¹. In the data set with glucosamine-6-phosphate [5], the “self-cleavage kobs at 160 uM GlcN6P” value was less than 1e-05 s⁻¹. Further, the “self-cleavage kobs at 640 uM GlcN6P” value with glucosamine-6-phosphate [2] is less than 1e-05 s⁻¹. In addition, the “self-cleavage kobs at 10000 uM GlcN6P” value in the data set with glucosamine-6-phosphate [3] is less than 1e-05 s⁻¹.

Consider G35U G60A, for which the “self-cleavage kobs at 40 uM GlcN6P” value in the data set with glucosamine-6-phosphate [1] was less than 1e-05 s⁻¹. In the data set with glucosamine-6-phosphate [5], the “self-cleavage kobs at 160 uM GlcN6P” value was less than 1e-05 s⁻¹. Further, the “self-cleavage kobs at 640 uM GlcN6P” value with glucosamine-6-phosphate [2] is less than 1e-05 s⁻¹. In addition, the “self-cleavage kobs at 2500 uM GlcN6P” value with glucosamine-6-phosphate [4] was less than 1e-05 s⁻¹. Besides, the “self-cleavage kobs at 10000 uM GlcN6P” value with glucosamine-6-phosphate [3] is less than 1e-05 s⁻¹.

With G40U U55G, the “self-cleavage kobs at 40 uM GlcN6P” value with glucosamine-6-phosphate [1] is 0.000102 ± 1.4e-05 s⁻¹. Also, the “self-cleavage kobs at 160 uM GlcN6P” value with glucosamine-6-phosphate [5] came out at 0.000149 ± 2.2e-05 s⁻¹. For the same variant, the “self-cleavage kobs at 640 uM GlcN6P” value with glucosamine-6-phosphate [2] was found to be 0.000543 ± 9.9e-05 s⁻¹. Moreover, in the data set with glucosamine-6-phosphate [4], the “self-cleavage kobs at 2500 uM GlcN6P” value is 0.00142 ± 0.00023 s⁻¹. Moreover, the “self-cleavage kobs at 10000 uM GlcN6P” value with glucosamine-6-phosphate [3] is 0.00228 ± 0.00046 s⁻¹.

Consider U31G U69A, for which the “self-cleavage kobs at 40 uM GlcN6P” value in the data set with glucosamine-6-phosphate [1] is 2.79e-05 ± 1.1e-05 s⁻¹. For the same variant, the “self-cleavage kobs at 160 uM GlcN6P” value with glucosamine-6-phosphate [5] was found to be 9.26e-05 ± 3.7e-05 s⁻¹. Moreover, in the data set with glucosamine-6-phosphate [2], the “self-cleavage kobs at 640 uM GlcN6P” value stood at 0.00012 ± 3.2e-05 s⁻¹. Besides, the “self-cleavage kobs at 2500 uM GlcN6P” value in the data set with glucosamine-6-phosphate [4] was determined as 0.000288 ± 7.4e-05 s⁻¹. In addition, in the data set with glucosamine-6-phosphate [3], the “self-cleavage kobs at 10000 uM GlcN6P” value was 0.000103 ± 1.4e-05 s⁻¹.

For C8U A53C, in the data set with glucosamine-6-phosphate [1], the “self-cleavage kobs at 40 uM GlcN6P” value is less than 1e-05 s⁻¹. In addition, the “self-cleavage kobs at 160 uM GlcN6P” value with glucosamine-6-phosphate [5] is less than 1e-05 s⁻¹. For the same variant, the “self-cleavage kobs at 640 uM GlcN6P” value with glucosamine-6-phosphate [2] is less than 1e-05 s⁻¹. The “self-cleavage kobs at 2500 uM GlcN6P” value in the data set with glucosamine-6-phosphate [4] was less than 1e-05 s⁻¹. For the same variant, the “self-cleavage kobs at 10000 uM GlcN6P” value with glucosamine-6-phosphate [3] was less than 1e-05 s⁻¹.

For the variant G29A U47G, the “self-cleavage kobs at 40 uM GlcN6P” value in the data set with glucosamine-6-phosphate [1] turned out to be 2.24e-05 ± 1.1e-05 s⁻¹. For the same variant, in the data set with glucosamine-6-phosphate [2], the “self-cleavage kobs at 640 uM GlcN6P” value turned out to be 0.000161 ± 6.4e-05 s⁻¹. In the data set with glucosamine-6-phosphate [3], the “self-cleavage kobs at 10000 uM GlcN6P” value worked out at 0.000713 ± 0.00011 s⁻¹.

On to G29C A36U A39G G63U, for which the “self-cleavage kobs at 40 uM GlcN6P” value in the data set with glucosamine-6-phosphate [1] was less than 1e-05 s⁻¹. In the data set with glucosamine-6-phosphate [3], the “self-cleavage kobs at 10000 uM GlcN6P” value was less than 1e-05 s⁻¹.

On to C10G G40A, for which, in the data set with glucosamine-6-phosphate [1], the “self-cleavage kobs at 40 uM GlcN6P” value was less than 1e-05 s⁻¹. Besides, the “self-cleavage kobs at 640 uM GlcN6P” value with glucosamine-6-phosphate [2] is less than 1e-05 s⁻¹. Also, the “self-cleavage kobs at 2500 uM GlcN6P” value in the data set with glucosamine-6-phosphate [4] is less than 1e-05 s⁻¹. Besides, in the data set with glucosamine-6-phosphate [3], the “self-cleavage kobs at 10000 uM GlcN6P” value is less than 1e-05 s⁻¹.
